Data published in US20220296727A1, “Immunoconjugate” (DendroCyte BioTech Pty Ltd, priority 2019, published 2022).

Legend:
HL-60 = conditions: comparator agents; cited from earlier work
U937 = conditions: comparator agents; cited from earlier work
THP-1 = conditions: comparator agents; cited from earlier work
human CD300f = human CD300f (human, UniProt Q8TDQ1 20-290); assay: cell-based or functional assay
HL-60 cells = assay: Internalisation assay by flow cytometry; type: cell-based
Protocol: DCR-2 (IgG1), and as an isotype control, the anti-tetanus toxoid mAb, CMRF-81 (IgG1) which were both produced, purified and directly conjugated to phycoerythrin (PE) in house (Abadir et al. Mol Oncol. 2019; 13(10):2107-2120). Cells were incubated with DCR-2-PE or CMRF-81-PE (10 μg/ml) on ice for 20 min, washed to remove unbound mAb then incubated at 37° C./5% CO2 to allow internalisation for the indicated times.
After incubation, residual mAb remaining on the cell surface was detected with a secondary goat anti-mouse (GAM) IgG-AF488 antibody. Cells were fixed in 1% paraformaldehyde/PBS for flow cytometry analysis. The surface and total relative Mean Fluorescent Index (MFI) was calculated as the (MFI of binding antibody at time point−MFI of isotype control at time point) at 37° C./(MFI of binding antibody at time point−MFI of isotype control at time point) at 0° C. The percent internalised was assessed by 100−(relative MFI surface staining/relative MFI total staining). In immunofluorescent microscopy experiments cells were stained with DCR-2 then air-dried and fixed with 4% paraformaldehyde or incubated for 37° C. for 30 minutes then fixed. Rehydration was performed using 1% BSA/PBS prior to staining with GAM IgG-AF488 antibody and 18 μM DAPI (ThermoFisher).

dendritic cells = assay: Activation marker expression on dendritic cells after LPS; type: cell-based, human; conditions: HLA-DR, CD11c, CD80, CD83; 200 pmol
Protocol: The activity of DCR-2PBD on the upregulation of activation markers on DC was measured by incubating whole PBMC with DCR-2PBD or no antibody for […] before washing, followed by 12 hours of LPS stimulation. Control DC were not exposed to DCR-2PBD or LPS. Myeloid DC were gated out by excluding dead cells, Lin^+(CD3, CD20, CD19, CD56, CD14), then gating on HLA-DR^+ and CD11c^+ cells. The activation markers CD80 and CD83 were assessed via flow cytometry. The changes on activation were determined by comparing activated DC incubated with or without DCR-2PBD compared to inactivated DC.
PBMC were incubated in complete RPMI media with or without DCR-2-PBD (200 pmol). After 12 hours, washed cells were incubated for a further 12 hours with or without LPS then phenotyped for the expression of activation markers on DC populations. MoDC were derived from CD14+ monocytes as described previously (Fromm et al. J Leukoc Biol. 2020; 107(2):323-339). DCR-2-PBD or isotype-PBD (200 pmol) were added for 72 hours prior to enumeration of live cells by flow cytometry.

AML = assay: NOS/SCID mouse model of AML; type: in vivo; conditions: unconjugated antibody alone

human CD300f, sequence (Q8TDQ1 20-290): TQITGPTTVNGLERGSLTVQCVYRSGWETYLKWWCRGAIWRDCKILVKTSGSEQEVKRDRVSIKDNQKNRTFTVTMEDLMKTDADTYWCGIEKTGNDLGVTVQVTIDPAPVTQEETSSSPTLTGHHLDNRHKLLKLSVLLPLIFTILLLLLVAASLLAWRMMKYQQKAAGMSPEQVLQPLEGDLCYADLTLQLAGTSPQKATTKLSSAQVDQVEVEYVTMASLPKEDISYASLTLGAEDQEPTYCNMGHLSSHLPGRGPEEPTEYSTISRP

CS(=O)(=O)OCCCCOS(C)(=O)=O [Busulfan]
IC50 (HL-60): 354000 nM

Gemtuzumab-Ozogamicin: approved AML therapeutic which targets CD33
IC50 (HL-60): 0.0133 nM
IC50 (U937): 0.127 nM
IC50 (THP-1): 0.04 nM

COc1cccc2c1C(=O)c1c(O)c3c(c(O)c1C2=O)C[C@@](O)(C(=O)CO)C[C@@H]3O[C@H]1C[C@H](N)[C@H](O)[C@H](C)O1 [Doxorubicin]
IC50 (HL-60): 345000 nM

B1: DCR-2-pyrrolobenzodiazepine (PBD) immunoconjugate (antibody, V domains shown)
VH: MESGGGLVQPGGPLKLSCAASGFGFSGSWMSWVRQAPGKGLEWIGQINPDSSTINYTPSLKDKFIISRDNAKNTLYLQINKVRSEDTALYYCARRGFFEGYSAWFAYW
VL: ILMTQTPKFLLVSAGDRVTITCKASQSVSNDVAWYQQKPGQSPSLLIYYASNRNTGVPDRFTGSGYETDFTFTISTVQAEDLAVYFCQQDYTSPWTFGGG
modifications: PBD dimer linked through the Cathepsin B-cleavable linker MA-PEG4-VA-PBD to native cysteines (reduced interchain disulfides); drug to antibody molar ratio 3.3; positions not given
IC50 (pM), cytotoxicity on HL-60 cells (human CD300f): 5.45 pM
IC50 (pM), cytotoxicity on THP-1 cells (human CD300f): 29.9 pM
IC50 (pM), cytotoxicity on U937 cells (human CD300f): 6.74 pM

B2: DCR-2: murine IgG1 kappa monoclonal antibody binding the extracellular domain of CD300f; hybridoma CBA20160029 (antibody, V domains shown)
VH: MESGGGLVQPGGPLKLSCAASGFGFSGSWMSWVRQAPGKGLEWIGQINPDSSTINYTPSLKDKFIISRDNAKNTLYLQINKVRSEDTALYYCARRGFFEGYSAWFAYW
VL: ILMTQTPKFLLVSAGDRVTITCKASQSVSNDVAWYQQKPGQSPSLLIYYASNRNTGVPDRFTGSGYETDFTFTISTVQAEDLAVYFCQQDYTSPWTFGGG
Internalisation (HL-60 cells; 30 minutes): significant
Internalisation (HL-60 cells; 180 minutes): greater than 50%
up-regulation of activation markers on dendritic cells after LPS (dendritic cells): does not prevent upregulation of activation markers CD80 and CD83
survival and disease burden (AML): does not prolong survival or reduce disease burden
